Measured values reported in patent publication US20030236197A1.

Target: Aβ1-40 peptide (monomeric start material of the nucleation assay)
Test: cell-based or functional assay

Row | Nucleation assay Δ lag at 1.25 µM compound (ratio of lag time to control) | Nucleation assay Δ lag at 2.5 µM compound (ratio of lag time to control) | Nucleation assay Δ lag at 5 µM compound (ratio of lag time to control) | Nucleation assay Δ lag at 0.6 µM compound (row marked #: measured at 2.5, 1.25 and 0.6 µM) (ratio of lag time to control) | Nucleation assay Δ lag at 1.25 µM compound (row marked #: measured at 2.5, 1.25 and 0.6 µM) (ratio of lag time to control) | Nucleation assay Δ lag at 2.5 µM compound (row marked #: measured at 2.5, 1.25 and 0.6 µM) (ratio of lag time to control) | Substance
1 | 3 | > 5 | > 5 | – | – | – | PPI-969: TFA • N-ethyl-(Gaffvl)-NH2 (peptide)
2 | – | – | – | 2 | > 3 | 2 | PPI-1013: TFA • H-(Glvffl)-NH2 (peptide)
